{
  "source": "patent US20190062438A1",
  "about": "(CSL, published 2019)",
  "binders": {"B1": {"name": "9A2-VR39.23 (antibody, V domains shown)", "VH": "EVQLLESGGGLVQPGGSLRLSCAASGFTFHHYHTVWVRQAPGKGLEWVSSINGRGRVTYYADSVKGRFTISRDNSKNTLYLQMNSLRAEDTAVYYCARFYDSFFDIWGQGTMVTVSS", "VL": "DIQMTQSPSSVSASVGDRVTITCRASQGISSWLAWYQQKPGKAPKLLIYAASSLQSGVPSRFSGSGSGTDFTLTISSLQPEDFATYYCQQANSFPITFGQGTRLEIKR"}, "B2": {"name": "9A2-VR39.22 (antibody, V domains shown)", "VH": "B1 VH with H30Q, H31W, T34V, V35I", "VL": "B1 VL"}, "B3": {"name": "9A2-VR39.24 (antibody, V domains shown)", "VH": "B1 VH with Y32F, T34V, V35I", "VL": "B1 VL"}, "B4": {"name": "9A2-VR39.98 (antibody, V domains shown)", "VH": "B1 VH with H30E, V35I", "VL": "B1 VL"}, "B5": {"name": "9A2-VR39.97 (antibody, V domains shown)", "VH": "B1 VH with H30P, H31W, Y32F, T34F", "VL": "B1 VL"}, "B6": {"name": "9A2-VR24.81 Fab (Fab, V domains shown)", "VH": "EVQLLESGGGLVQPGGSLRLSCAASGFTFPWYRVHWVRQAPGKGLEWVSSIHTHRNYTYYADSVKGRFTISRDNSKNTLYLQMNSLRAEDTAVYYCARFYDSFFDIWGQGTMVTVSS", "VL": "B1 VL", "notes": "recombinant Fab"}, "B7": {"name": "9A2-VR24.91 Fab (Fab, V domains shown)", "VH": "B6 VH with N56Q, Y57V", "VL": "B1 VL", "notes": "recombinant Fab"}, "B8": {"name": "9A2-VR24.102 Fab (Fab, V domains shown)", "VH": "B6 VH with H52R, T53S, H54S, R55G, N56G, Y57F, T58P, Y59F, A61N, D62S", "VL": "B1 VL", "notes": "recombinant Fab"}, "B9": {"name": "9A2-VR39.17 Fab (Fab, V domains shown)", "VH": "B1 VH with H30P, H31F, T34K", "VL": "B1 VL", "notes": "recombinant Fab"}, "B10": {"name": "9A2-VR39.177 Fab (Fab, V domains shown)", "VH": "B1 VH with H30S, T34M, V35L, D62L, S63E, V64Y, G66K", "VL": "B1 VL", "notes": "recombinant Fab"}, "B11": {"name": "9A2-VR24.122 Fab (Fab, V domains shown)", "VH": "B6 VH with H52R, T53S, H54S, R55G, N56G, Y57F, A61N, D62S, S63E", "VL": "B1 VL", "notes": "recombinant Fab"}, "B12": {"name": "9A2-VR24.124 Fab (Fab, V domains shown)", "VH": "B6 VH with H52R, T53S, H54S, R55G, N56G, Y57F, A61T, D62P, K65R", "VL": "B1 VL", "notes": "recombinant Fab"}, "B13": {"name": "9A2-VR39.24 Fab (Fab, V domains shown)", "VH": "B1 VH with Y32F, T34V, V35I", "VL": "B1 VL", "notes": "recombinant Fab"}, "B14": {"name": "9A2-VR39.04 Fab (Fab, V domains shown)", "VH": "B1 VH with H30N, H31W, Y32F, H33Q, T34H, V35I", "VL": "B1 VL", "notes": "recombinant Fab"}, "B15": {"name": "9A2-VR24.98 Fab (Fab, V domains shown)", "VH": "EVQLLESGGGLVQPGGSLRLSCAASGFTFPWYRVHWVRQAPGKGLEWVSSIRSSGGFPHYNSVVKGRFTISRDNSKNTLYLQMNSLRAEDTAVYYCARFYDSFFDIWGQGTMVTVSS", "VL": "B1 VL", "notes": "recombinant Fab"}, "B16": {"name": "9A2-VR24.84 Fab (Fab, V domains shown)", "VH": "B6 VH with N56P, Y57W", "VL": "B1 VL", "notes": "recombinant Fab"}, "B17": {"name": "9A2-VR24.107 Fab (Fab, V domains shown)", "VH": "B15 VH with H59Y, S62P, V63F", "VL": "B1 VL", "notes": "recombinant Fab"}, "B18": {"name": "9A2-VR39.110 Fab (Fab, V domains shown)", "VH": "B1 VH with H30V, H31W, T34H, V35I", "VL": "B1 VL", "notes": "recombinant Fab"}, "B19": {"name": "9A2-VR39.01 Fab (Fab, V domains shown)", "VH": "B1 VH with H30F, H31W, Y32F, T34H", "VL": "B1 VL", "notes": "recombinant Fab"}, "B20": {"name": "9A2-VR24.111 Fab (Fab, V domains shown)", "VH": "B15 VH with H59M, S62P, V63H", "VL": "B1 VL", "notes": "recombinant Fab"}, "B21": {"name": "9A2-VR39.93 Fab (Fab, V domains shown)", "VH": "B1 VH with H30S, T34M, V35L, A61N, D62P, S63A, V64W, G66K", "VL": "B1 VL", "notes": "recombinant Fab"}, "B22": {"name": "9A2-VR39.02 Fab (Fab, V domains shown)", "VH": "B1 VH with H30Y, H31W, T34M, V35I", "VL": "B1 VL", "notes": "recombinant Fab"}, "B23": {"name": "9A2-VR24.110 Fab (Fab, V domains shown)", "VH": "B15 VH with H59Y, S62N, V63H", "VL": "B1 VL", "notes": "recombinant Fab"}, "B24": {"name": "9A2-VR24.97 Fab (Fab, V domains shown)", "VH": "B15 VH with H59Y, N61S, S62L, V63S", "VL": "B1 VL", "notes": "recombinant Fab"}, "B25": {"name": "9A2-VR39.109 Fab (Fab, V domains shown)", "VH": "B1 VH with H30M, H31W, T34H, V35I", "VL": "B1 VL", "notes": "recombinant Fab"}, "B26": {"name": "9A2-VR39.22 Fab (Fab, V domains shown)", "VH": "B1 VH with H30Q, H31W, T34V, V35I", "VL": "B1 VL", "notes": "recombinant Fab"}},
  "note": "Changes are numbered by the printed parent chain.",
  "data": [
    {"target": "T1, human CD131 (human, UniProt P32927 17-897)", "T1 sequence": "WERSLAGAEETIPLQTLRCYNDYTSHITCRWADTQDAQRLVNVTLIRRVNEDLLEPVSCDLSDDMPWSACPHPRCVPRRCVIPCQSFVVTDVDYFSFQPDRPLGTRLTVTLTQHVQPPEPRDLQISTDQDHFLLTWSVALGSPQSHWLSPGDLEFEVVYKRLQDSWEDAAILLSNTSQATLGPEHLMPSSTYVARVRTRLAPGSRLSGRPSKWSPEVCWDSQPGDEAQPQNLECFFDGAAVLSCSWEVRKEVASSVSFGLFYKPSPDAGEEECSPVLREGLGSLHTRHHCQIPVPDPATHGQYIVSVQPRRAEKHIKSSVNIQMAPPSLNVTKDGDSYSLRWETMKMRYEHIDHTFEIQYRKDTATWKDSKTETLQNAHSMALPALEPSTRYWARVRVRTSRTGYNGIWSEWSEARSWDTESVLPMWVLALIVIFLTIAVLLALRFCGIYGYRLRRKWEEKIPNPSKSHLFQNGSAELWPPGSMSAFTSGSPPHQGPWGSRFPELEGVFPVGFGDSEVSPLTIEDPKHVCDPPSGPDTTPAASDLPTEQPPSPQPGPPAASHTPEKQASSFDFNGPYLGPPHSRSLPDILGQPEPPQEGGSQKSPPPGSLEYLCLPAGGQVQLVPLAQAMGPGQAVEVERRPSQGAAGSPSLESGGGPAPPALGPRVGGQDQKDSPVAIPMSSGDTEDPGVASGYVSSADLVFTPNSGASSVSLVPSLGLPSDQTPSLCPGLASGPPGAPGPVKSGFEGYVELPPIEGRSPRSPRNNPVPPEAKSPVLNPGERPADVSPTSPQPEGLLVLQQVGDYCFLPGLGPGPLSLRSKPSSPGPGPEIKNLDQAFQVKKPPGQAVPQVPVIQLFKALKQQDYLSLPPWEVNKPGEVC", "experiment": "cell-based or functional assay", "units": {"IC50 GM-CSF, TF-1 proliferation": "nM"}, "values": [
      {"binder": "B1", "IC50 GM-CSF, TF-1 proliferation": 0.9},
      {"binder": "B2", "IC50 GM-CSF, TF-1 proliferation": 0.5},
      {"binder": "B3", "IC50 GM-CSF, TF-1 proliferation": 0.42},
      {"binder": "B4", "IC50 GM-CSF, TF-1 proliferation": 1.44},
      {"binder": "B5", "IC50 GM-CSF, TF-1 proliferation": 0.92}
    ]},
    {"target": "T2, soluble Homo sapiens CD131 comprising a C-terminal 6xHis tag (human, UniProt P32927 17-438)", "T2 construct": "truncated after Ser438, C-terminal 6xHis; also called shCD131; shβc", "T2 sequence": "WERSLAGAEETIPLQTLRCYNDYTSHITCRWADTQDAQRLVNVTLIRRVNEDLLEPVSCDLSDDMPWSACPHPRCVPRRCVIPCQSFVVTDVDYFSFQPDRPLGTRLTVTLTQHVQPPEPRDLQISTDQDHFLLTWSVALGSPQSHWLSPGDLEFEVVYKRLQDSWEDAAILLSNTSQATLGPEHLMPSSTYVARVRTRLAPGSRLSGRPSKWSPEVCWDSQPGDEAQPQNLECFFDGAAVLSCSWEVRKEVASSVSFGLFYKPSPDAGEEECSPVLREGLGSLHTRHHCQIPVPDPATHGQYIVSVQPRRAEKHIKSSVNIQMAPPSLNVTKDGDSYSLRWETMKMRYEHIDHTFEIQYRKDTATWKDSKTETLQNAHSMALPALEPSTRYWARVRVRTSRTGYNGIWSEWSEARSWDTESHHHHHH", "experiment": "SPR, Fab over captured shCD131", "description": "Binding kinetics were measured using SPR with a BIAcore™ A-100 instrument (GE Healthcare Life Sciences). An anti-C-terminal Hexa-His antibody (3H3) was immobilized on spots 1, 2, 4 and 5 of each flow cell of a CM-5 sensor chip (GE Healthcare Life Sciences) using amine-coupling chemistry (116). […] As shβc is a dimer, kinetics assays were performed with shβc captured on the sensor surface, and purified Fab injected as the analyte. Avidity effects were avoided by the use of Fab rather than whole IgG.\nshCD131 was captured on spots 1 and 5 of each flow cell for 2 minutes at a concentration of 0.4 μg/ml. […] For some analysis purified Fab was injected over each flow cell for 3 minutes and dissociation was monitored for a further 10 minutes. Regeneration of the surface was performed after each cycle with a 40 second injection of 25 mM glycine, pH 2.0. The analysis was performed with Fabs at several concentrations between 100 and 0.31 nM, with each concentration analyzed twice and in random order. The analysis was performed at a flow rate of 30 μl/min in HBS-EP buffer (10 mM Hepes, 150 mM NaCl, 3 mM EDTA, 0.005% Tween 20, pH 7.4) at 37° C. Responses from spots 2 and 4 of each flow cell, (in which shβc was not captured, but otherwise treated identically), were subtracted from those of spots 1 and 5 respectively to produce reference subtracted data. Reference subtracted responses from a blank injection comprising buffer alone were subtracted from the resultant sensorgrams to produce double referenced data suitable for kinetic analysis. Double-referenced sensorgrams were fitted using non-linear regression to a model describing 1:1 kinetics, including a term for mass transport limitation. The Rₘₐₓ value was fitted locally to account for slight deviations in the level of sCD131 captured, with association rate (kₐ), dissociation rate (kd) and equilibrium dissociation constant (KD) fitted globally.", "units": {"Kd": "nM", "koff": "s⁻¹", "kon": "M⁻¹ s⁻¹"}, "values": [
      {"binder": "B6", "Kd": 0.173, "koff": 0.000492, "kon": "2.85e+06"},
      {"binder": "B7", "Kd": 0.161, "koff": 0.000448, "kon": "2.78e+06"},
      {"binder": "B8", "Kd": 0.188, "koff": 0.000556, "kon": "2.95e+06"},
      {"binder": "B9", "Kd": 0.201, "koff": 0.000566, "kon": "2.81e+06"},
      {"binder": "B10", "Kd": 0.15, "koff": 0.000554, "kon": "3.69e+06"},
      {"binder": "B11", "Kd": 0.353, "koff": 0.000897, "kon": "2.54e+06"},
      {"binder": "B12", "Kd": 0.25, "koff": 0.00076, "kon": "2.9e+06"},
      {"binder": "B13", "Kd": 0.169, "koff": 0.0005, "kon": "2.96e+06"},
      {"binder": "B14", "Kd": 0.329, "koff": 0.00117, "kon": "3.55e+06"},
      {"binder": "B15", "Kd": 0.174, "koff": 0.000559, "kon": "3.21e+06"},
      {"binder": "B16", "Kd": 0.106, "koff": 0.000418, "kon": "3.95e+06"},
      {"binder": "B17", "Kd": 0.183, "koff": 0.00053, "kon": "2.89e+06"},
      {"binder": "B18", "Kd": 0.11, "koff": 0.00039, "kon": "3.8e+06"},
      {"binder": "B19", "Kd": 0.102, "koff": 0.00031, "kon": "3.04e+06"},
      {"binder": "B20", "Kd": 0.236, "koff": 0.000637, "kon": "2.7e+06"},
      {"binder": "B21", "Kd": 0.171, "koff": 0.00071, "kon": "4.15e+06"},
      {"binder": "B22", "Kd": 0.0877, "koff": 0.000341, "kon": "3.89e+06"},
      {"binder": "B23", "Kd": 0.151, "koff": 0.000475, "kon": "3.15e+06"},
      {"binder": "B24", "Kd": 0.16, "koff": 0.000524, "kon": "3.2e+06"},
      {"binder": "B25", "Kd": 0.098, "koff": 0.00033, "kon": "3.4e+06"},
      {"binder": "B26", "Kd": 0.141, "koff": 0.000441, "kon": "3.13e+06"}
    ]}
  ]
}
